Data on four substances can be found in publication PMC5923263.

Test [1] addresses His-tagged Sll1961 (wild type) (Synechocystis sp. PCC 6803). Briefly: SEC; His-Sll1961 reduced with 100 mM DTT for 15 min at room temperature, 60 μM; Superdex 75 increase 3.2/300 or Superdex 200 increase 3.2/300; 20 mM sodium phosphate (pH 7.4), 150 mM NaCl, 3 mM DTT; standards of 150, 66 and 44 kDa.
For test [2] the target is unchanged. In words: SEC-MALS; size exclusion chromatography with static light scattering (Viscotek TDA 305), Superdex 75 increase 3.2/300; BSA as standard. (In general: SEC sorts molecules by how far they enter the pores of the column.)
The target in test [3] is His-tagged Sll1961 C124A (Synechocystis sp. PCC 6803). Briefly: SEC; His-Sll1961 reduced with 100 mM DTT for 15 min at room temperature, 60 μM; Superdex 75 increase 3.2/300 or Superdex 200 increase 3.2/300; 20 mM sodium phosphate (pH 7.4), 150 mM NaCl, 3 mM DTT; standards of 150, 66 and 44 kDa.
Test [4] shares this target. Briefly: SEC-MALS; size exclusion chromatography with static light scattering (Viscotek TDA 305), Superdex 75 increase 3.2/300; BSA as standard.
Test [5] concerns the target His-tagged Sll1961 C229A (Synechocystis sp. PCC 6803). Briefly: SEC; His-Sll1961 reduced with 100 mM DTT for 15 min at room temperature, 60 μM; Superdex 75 increase 3.2/300 or Superdex 200 increase 3.2/300; 20 mM sodium phosphate (pH 7.4), 150 mM NaCl, 3 mM DTT; standards of 150, 66 and 44 kDa.
For test [6] the target is unchanged. In words: SEC-MALS; size exclusion chromatography with static light scattering (Viscotek TDA 305), Superdex 75 increase 3.2/300; BSA as standard.
Test [7] deals with His-tagged Sll1961 C307A (Synechocystis sp. PCC 6803). In words: SEC; His-Sll1961 reduced with 100 mM DTT for 15 min at room temperature, 60 μM; Superdex 75 increase 3.2/300 or Superdex 200 increase 3.2/300; 20 mM sodium phosphate (pH 7.4), 150 mM NaCl, 3 mM DTT; standards of 150, 66 and 44 kDa.
The target is the same in test [8]. In words: SEC-MALS; size exclusion chromatography with static light scattering (Viscotek TDA 305), Superdex 75 increase 3.2/300; BSA as standard.

Usually stoichiometry N stands for a count of units in the complex or per binding partner. Take “His-tagged Sll1961 (wild type) (natural protein)”: the stoichiometry N in test [1] and in test [2] was 2 each time.
For the substance “His-tagged Sll1961 C124A (natural protein)”, the stoichiometry N in test [3] and in test [4] was 2 throughout.
“His-tagged Sll1961 C229A (natural protein)”: the stoichiometry N in test [5] and in test [6] was 2 in each case.
As for “His-tagged Sll1961 C307A (natural protein)”, the stoichiometry N in test [7] and in test [8] was 2 in each case.
